From paper PMC10786891, “Massively parallel profiling of RNA-targeting CRISPR-Cas13d”

T1: EsCas13d, nuclease-dead (Eubacterium siraeum, UniProt B0MS50, R295A;H300A;R849A;H854A)
T1 sequence: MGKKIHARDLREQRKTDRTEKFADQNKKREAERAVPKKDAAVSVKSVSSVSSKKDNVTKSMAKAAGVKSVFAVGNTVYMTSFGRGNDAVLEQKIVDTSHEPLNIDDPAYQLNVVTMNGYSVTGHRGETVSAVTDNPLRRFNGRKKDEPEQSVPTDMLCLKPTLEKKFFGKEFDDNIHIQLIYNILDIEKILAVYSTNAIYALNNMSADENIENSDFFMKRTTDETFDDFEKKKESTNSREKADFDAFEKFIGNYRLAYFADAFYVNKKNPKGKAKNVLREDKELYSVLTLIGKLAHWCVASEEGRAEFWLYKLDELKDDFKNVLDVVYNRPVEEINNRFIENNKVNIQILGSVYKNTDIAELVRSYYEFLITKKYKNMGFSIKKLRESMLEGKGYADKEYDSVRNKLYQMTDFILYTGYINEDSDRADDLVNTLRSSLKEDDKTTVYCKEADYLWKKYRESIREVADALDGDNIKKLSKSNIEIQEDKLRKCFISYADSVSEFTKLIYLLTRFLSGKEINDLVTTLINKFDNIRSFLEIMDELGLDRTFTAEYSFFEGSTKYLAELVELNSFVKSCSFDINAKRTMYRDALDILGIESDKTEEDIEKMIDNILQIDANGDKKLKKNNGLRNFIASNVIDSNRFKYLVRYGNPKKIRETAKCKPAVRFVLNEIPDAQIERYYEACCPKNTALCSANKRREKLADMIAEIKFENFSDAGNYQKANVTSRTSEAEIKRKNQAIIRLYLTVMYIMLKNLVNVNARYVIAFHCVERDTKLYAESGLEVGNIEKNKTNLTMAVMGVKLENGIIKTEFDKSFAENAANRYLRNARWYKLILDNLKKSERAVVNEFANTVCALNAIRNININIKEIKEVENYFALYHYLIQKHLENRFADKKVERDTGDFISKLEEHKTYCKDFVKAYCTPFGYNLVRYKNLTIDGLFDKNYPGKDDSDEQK

B1: target 1 complement block 4-10 (mixed)
RNA 1: CACCCGUGCAAAAAUGCAGGGGUCUAAAACUGAGCGGAUAACCUCUCUAUGG
RNA 2: GGGAAUGGAUCCACAUCUACGAAUUCGUACCAUAGAGAGGUAUAGGCGUCACCGAGAUCGGAAGAGCACACGU
B2: target 1 C2A,A18G (mixed)
RNA 1: CACCCGUGCAAAAAUGCAGGGGUCUAAAACUGAGCGGAUAACCUCUCUAUGG
RNA 2: GGGAAUGGAUCCACAUCUACGAAUUCGUACCAUGGAGAGGUUAUCCGCUAACCGAGAUCGGAAGAGCACACGU
B3: target 1 insU 3' of 20,insG 3' of 6 (mixed)
RNA 1: CACCCGUGCAAAAAUGCAGGGGUCUAAAACUGAGCGGAUAACCUCUCUAUGG
RNA 2: GGGAAUGGAUCCACAUCUACGAAUUCGUACCAUUAGAGAGGUUAUCCGGCUCACCGAGAUCGGAAGAGCACACGU
B4: target 1 insG 3' of 11 (mixed)
RNA 1: CACCCGUGCAAAAAUGCAGGGGUCUAAAACUGAGCGGAUAACCUCUCUAUGG
RNA 2: GGGAAUGGAUCCACAUCUACGAAUUCGUACCAUAGAGAGGUGUAUCCGCUCACCGAGAUCGGAAGAGCACACGU
B5: target 1 C6U,U11G (mixed)
RNA 1: CACCCGUGCAAAAAUGCAGGGGUCUAAAACUGAGCGGAUAACCUCUCUAUGG
RNA 2: GGGAAUGGAUCCACAUCUACGAAUUCGUACCAUAGAGAGGGUAUCUGCUCACCGAGAUCGGAAGAGCACACGU
B6: target 1 insC 3' of 14,insG 3' of 11 (mixed)
RNA 1: CACCCGUGCAAAAAUGCAGGGGUCUAAAACUGAGCGGAUAACCUCUCUAUGG
RNA 2: GGGAAUGGAUCCACAUCUACGAAUUCGUACCAUAGAGACGGUGUAUCCGCUCACCGAGAUCGGAAGAGCACACGU
B7: target 1 U10C,G12U (mixed)
RNA 1: CACCCGUGCAAAAAUGCAGGGGUCUAAAACUGAGCGGAUAACCUCUCUAUGG
RNA 2: GGGAAUGGAUCCACAUCUACGAAUUCGUACCAUAGAGAGUUCAUCCGCUCACCGAGAUCGGAAGAGCACACGU
B8: target 1 insG 3' of 11,insA 3' of 6 (mixed)
RNA 1: CACCCGUGCAAAAAUGCAGGGGUCUAAAACUGAGCGGAUAACCUCUCUAUGG
RNA 2: GGGAAUGGAUCCACAUCUACGAAUUCGUACCAUAGAGAGGUGUAUCCAGCUCACCGAGAUCGGAAGAGCACACGU
B9: target 1 insU 3' of 14,insG 3' of 11 (mixed)
RNA 1: CACCCGUGCAAAAAUGCAGGGGUCUAAAACUGAGCGGAUAACCUCUCUAUGG
RNA 2: GGGAAUGGAUCCACAUCUACGAAUUCGUACCAUAGAGAUGGUGUAUCCGCUCACCGAGAUCGGAAGAGCACACGU
B10: target 1 G15A,A16C (mixed)
RNA 1: CACCCGUGCAAAAAUGCAGGGGUCUAAAACUGAGCGGAUAACCUCUCUAUGG
RNA 2: GGGAAUGGAUCCACAUCUACGAAUUCGUACCAUAGCAAGGUUAUCCGCUCACCGAGAUCGGAAGAGCACACGU
B11: target 1 C6U,C22U (mixed)
RNA 1: CACCCGUGCAAAAAUGCAGGGGUCUAAAACUGAGCGGAUAACCUCUCUAUGG
RNA 2: GGGAAUGGAUCCACAUCUACGAAUUCGUAUCAUAGAGAGGUUAUCUGCUCACCGAGAUCGGAAGAGCACACGU
B12: target 1 insG 3' of 18,insG 3' of 9 (mixed)
RNA 1: CACCCGUGCAAAAAUGCAGGGGUCUAAAACUGAGCGGAUAACCUCUCUAUGG
RNA 2: GGGAAUGGAUCCACAUCUACGAAUUCGUACCAUAGGAGAGGUUAGUCCGCUCACCGAGAUCGGAAGAGCACACGU
B13: target 1 U3G,A16G (mixed)
RNA 1: CACCCGUGCAAAAAUGCAGGGGUCUAAAACUGAGCGGAUAACCUCUCUAUGG
RNA 2: GGGAAUGGAUCCACAUCUACGAAUUCGUACCAUAGGGAGGUUAUCCGCGCACCGAGAUCGGAAGAGCACACGU
B14: target 1 C2A,G5C (mixed)
RNA 1: CACCCGUGCAAAAAUGCAGGGGUCUAAAACUGAGCGGAUAACCUCUCUAUGG
RNA 2: GGGAAUGGAUCCACAUCUACGAAUUCGUACCAUAGAGAGGUUAUCCCCUAACCGAGAUCGGAAGAGCACACGU
B15: target 1 U3G,A14C (mixed)
RNA 1: CACCCGUGCAAAAAUGCAGGGGUCUAAAACUGAGCGGAUAACCUCUCUAUGG
RNA 2: GGGAAUGGAUCCACAUCUACGAAUUCGUACCAUAGAGCGGUUAUCCGCGCACCGAGAUCGGAAGAGCACACGU
B16: target 1 insU 3' of 13,insA 3' of 7 (mixed)
RNA 1: CACCCGUGCAAAAAUGCAGGGGUCUAAAACUGAGCGGAUAACCUCUCUAUGG
RNA 2: GGGAAUGGAUCCACAUCUACGAAUUCGUACCAUAGAGAGUGUUAUCACGCUCACCGAGAUCGGAAGAGCACACGU
B17: target 1 U3C,A9C (mixed)
RNA 1: CACCCGUGCAAAAAUGCAGGGGUCUAAAACUGAGCGGAUAACCUCUCUAUGG
RNA 2: GGGAAUGGAUCCACAUCUACGAAUUCGUACCAUAGAGAGGUUCUCCGCCCACCGAGAUCGGAAGAGCACACGU
B18: target 1 del3,del14 (mixed)
RNA 1: CACCCGUGCAAAAAUGCAGGGGUCUAAAACUGAGCGGAUAACCUCUCUAUGG
RNA 2: GGGAAUGGAUCCACAUCUACGAAUUCGUACCAUAGAGGGUUAUCCGCCACCGAGAUCGGAAGAGCACACGU
B19: target 1 C6A,C7U (mixed)
RNA 1: CACCCGUGCAAAAAUGCAGGGGUCUAAAACUGAGCGGAUAACCUCUCUAUGG
RNA 2: GGGAAUGGAUCCACAUCUACGAAUUCGUACCAUAGAGAGGUUAUUAGCUCACCGAGAUCGGAAGAGCACACGU
B20: target 1 G5U,A9U (mixed)
RNA 1: CACCCGUGCAAAAAUGCAGGGGUCUAAAACUGAGCGGAUAACCUCUCUAUGG
RNA 2: GGGAAUGGAUCCACAUCUACGAAUUCGUACCAUAGAGAGGUUUUCCUCUCACCGAGAUCGGAAGAGCACACGU
B21: target 1 insU 3' of 21,insG 3' of 10 (mixed)
RNA 1: CACCCGUGCAAAAAUGCAGGGGUCUAAAACUGAGCGGAUAACCUCUCUAUGG
RNA 2: GGGAAUGGAUCCACAUCUACGAAUUCGUACCUAUAGAGAGGUUGAUCCGCUCACCGAGAUCGGAAGAGCACACGU
B22: target 1 U3G,U10A (mixed)
RNA 1: CACCCGUGCAAAAAUGCAGGGGUCUAAAACUGAGCGGAUAACCUCUCUAUGG
RNA 2: GGGAAUGGAUCCACAUCUACGAAUUCGUACCAUAGAGAGGUAAUCCGCGCACCGAGAUCGGAAGAGCACACGU
B23: target 1 insG 3' of 21,insU 3' of 18 (mixed)
RNA 1: CACCCGUGCAAAAAUGCAGGGGUCUAAAACUGAGCGGAUAACCUCUCUAUGG
RNA 2: GGGAAUGGAUCCACAUCUACGAAUUCGUACCGAUAUGAGAGGUUAUCCGCUCACCGAGAUCGGAAGAGCACACGU
B24: target 1 insC 3' of 20,insG 3' of 2 (mixed)
RNA 1: CACCCGUGCAAAAAUGCAGGGGUCUAAAACUGAGCGGAUAACCUCUCUAUGG
RNA 2: GGGAAUGGAUCCACAUCUACGAAUUCGUACCACUAGAGAGGUUAUCCGCUCGACCGAGAUCGGAAGAGCACACGU

Biological target: T1, EsCas13d, nuclease-dead
Experiment: crRNA (strand 1, pre-loaded); Mg2+; 40 mM Tris-HCl pH 7.5, 150 mM NaCl, 6 mM MgCl2, 1 mM DTT, 0.1% Tween-20, 0.2 mg/ml BSA; 25 C; 10 min per concentration, then washed
Conditions: tags: His6-TwinStrep-SUMO cleaved; N-terminal SNAP kept (SNAP-Surface 488); label: 3' end held by stalled T7 RNA polymerase

Row | Binder | Kd [nM]
1 | B1 | 13.4 ± 0.4
2 | B2 | 64 ± 18
3 | B3 | 16.3 ± 0.9
4 | B4 | 33.3 ± 3.1
5 | B5 | 16.2 ± 0.9
6 | B6 | 57 ± 13
7 | B7 | 24 ± 4
8 | B8 | 94 ± 29
9 | B9 | 80 ± 40
10 | B10 | 30.5 ± 2.7
11 | B11 | 14.8 ± 1.9
12 | B12 | 49 ± 8
13 | B13 | 27.1 ± 1.5
14 | B14 | 6.52 ± 0.32
15 | B15 | 28.6 ± 1.8
16 | B16 | 13.6 ± 0.6
17 | B17 | 28.4 ± 3
18 | B18 | 44 ± 4
19 | B19 | 7.1 ± 0.5
20 | B20 | 97 ± 20
21 | B21 | 82 ± 23
22 | B22 | 17.2 ± 1.3
23 | B23 | 77 ± 22
24 | B24 | 11.6 ± 0.5
